Test system: CsrA-H6 (Escherichia coli (stated identical to S. Typhimurium CsrA))
Assay: EMSA

hilE leader RNA (+153 to +280)
Kd: 37 nM

Reference: article PMC8192010
